Measured values as given in PMC11054746, “GRPR-Antagonists Carrying DOTAGA-Chelator via Positively Charged Linkers: Perspectives for Prostate Cancer Theranostics” (Pharmaceutics, 2024).
Read-outs that look alike come from different tables or passages of the source.

Tests used:
[1] = tested on: PC-3 xenografts; test: in vivo; parameters: species or system BALB/C nu/nu mice; conditions: mouse, iv, 40 pmol, 4 h; for Kidneys uptake: BALB/C nu/nu
Procedure: (§1) All in vivo studies were performed following European guidelines on laboratory animal protection. The in vivo stability experiments were carried out in healthy male Swiss albino mice; the study protocol was approved by the Department of Agriculture and Veterinary Service of the Prefecture of Athens (protocol number #440448, 01-06-2021). The biodistribution, in vivo targeting specificity assay, and SPECT/CT imaging experiments were carried out on BALB/C nu/nu mice. The Ethics Committee for Animal Research in Uppsala (Sweden) approved the latter in vivo animal studies (permit number 00473/21). The BALB/C nu/nu mice were implanted with GRPR-positive prostate cancer xenografts by subcutaneous injection on the right hind leg of PC-3 cells suspended in PBS (7 × 10^6 cells/mouse) four weeks before the biodistribution studies.
(§2) The mice were iv injected with 40 pmol peptide (30 kBq in a total volume of 100 μL 1% bovine serum albumin (BSA) in PBS). […] At the indicated time points, mice were euthanized under anesthesia. The organs of interest were collected, weighed, and the sample radioactivity content was measured on the gamma counter. The percentage of injected activity per gram (%IA/g) of collected tumors, organs and tissues, the %IA for the remaining gastrointestinal tract and carcass, as well as the tumor-to-organ ratios (T/O) were calculated.

[2] = in vivo; parameters: species or system BALB/C nu/nu mice; conditions: BALB/C nu/nu, mouse, iv, 40 pmol, total radioactivity; for tissue to tissue ratio at 4 h: Tumor-to-organ ratio
Procedure: as §1, §2

[3] = target: T1, human GRPR (Homo sapiens, UniProt P30550); test: Affinity measurements in real time (LigandTracer) on PC-3 cells; assay type: binding; conditions: room temperature, 1:2 fitting interaction model
T1 construct: host or cells: PC-3 human prostate adenocarcinoma cells
Procedure: The association curves were recorded at 1 nM and 3 nM of the radiolabeled peptides for 300 min. After reaching the plateau, the medium containing the radioligand was replaced with fresh medium and the dissociation curve was measured for about 16 h. The obtained sensorgrams were analyzed using TracerDrawer (Ridgeview Instruments AB, Uppsala, Sweden) and the dissociation constants (KD) were calculated.

[4] = GI (gastrointestinal tract, GIT) uptake

T1 sequence (P30550 whole entry): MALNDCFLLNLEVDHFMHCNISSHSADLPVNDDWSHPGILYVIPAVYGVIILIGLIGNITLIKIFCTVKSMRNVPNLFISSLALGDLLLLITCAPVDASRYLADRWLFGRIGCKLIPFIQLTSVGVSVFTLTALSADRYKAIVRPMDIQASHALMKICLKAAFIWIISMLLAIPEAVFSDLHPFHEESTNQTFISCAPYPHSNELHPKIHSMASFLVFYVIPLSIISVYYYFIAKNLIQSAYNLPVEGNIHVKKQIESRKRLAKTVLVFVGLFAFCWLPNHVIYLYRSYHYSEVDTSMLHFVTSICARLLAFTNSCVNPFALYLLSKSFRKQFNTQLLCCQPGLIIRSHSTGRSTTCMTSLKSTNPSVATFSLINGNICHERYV

Row | SMILES | Kidneys uptake [1] | tissue uptake at 4 h ([2]; Blood uptake) [%ID/g] | tissue uptake at 4 h ([2]; Bone uptake) [%ID/g] | tissue uptake dose at 4 h ([2]; Carcass (whole body) uptake) [%ID] | tissue uptake dose at 4 h [2, 4] [%ID] | tissue uptake at 4 h ([2]; Kidneys uptake) [%ID/g] | tissue uptake at 4 h ([2]; Liver uptake) [%ID/g] | tissue uptake at 4 h ([2]; Lungs uptake) [%ID/g] | tissue uptake at 4 h ([2]; Muscle uptake) [%ID/g] | tissue uptake at 4 h ([2]; Pancreas uptake) [%ID/g] | tissue uptake at 4 h ([2]; Small Int uptake) [%ID/g] | tissue uptake at 4 h ([2]; Spleen uptake) [%ID/g] | tissue to tissue ratio at 4 h ([2]; Blood) | tissue to tissue ratio at 4 h ([2]; Bone) | tissue to tissue ratio at 4 h ([2]; Kidneys) | tissue to tissue ratio at 4 h ([2]; Liver) | tissue to tissue ratio at 4 h ([2]; Lungs) | tissue to tissue ratio at 4 h ([2]; Muscle) | tissue to tissue ratio at 4 h ([2]; Pancreas) | tissue to tissue ratio at 4 h ([2]; Small Int) | further results
1 | CC(C)C[C@H](NC(=O)C[C@H](O)[C@H](CC(C)C)NC(=O)[C@H](Cc1c[nH]cn1)NC(=O)CN(C)C(=O)[C@@H](NC(=O)[C@H](C)NC(=O)[C@H](Cc1c[nH]c2ccccc12)NC(=O)[C@H](CCC(N)=O)NC(=O)[C@@H](Cc1ccccc1)NC(=O)COCCOCCNC(=O)CCC(C(=O)O)N1CCN(CC(=O)O)CCN(CC(=O)O)CCN(CC(=O)O)CC1)C(C)C)C(N)=O (stereo partly shown) [[^111In]In-AU-RM26-M1, [^111In]In-DOTAGA-PEG2-[Sar^11]RM26, metal not drawn, reference compound] | ~ 6.5 %IA/g | 0.04 ± 0.01 | 0.05 ± 0.01 | 1.3 ± 0.5 | 0.9 ± 0.1 | 6.4 ± 0.6 | 0.2 ± 0.1 | 0.08 ± 0.05 | 0.04 ± 0.02 | 0.2 ± 0.1 | 0.1 ± 0.04 | 0.08 ± 0.02 | 133 ± 26 | 117 ± 16 | 0.9 ± 0.2 | 39 ± 5 | 81 ± 25 | 234 ± 154 | 27 ± 4 | 57 ± 7 | Tumor uptake [1]: 6 ± 2 %IA/g; tissue to tissue ratio at 4 h ([2]; Spleen): 72 ± 9.5
2 | CC(C)C[C@H](NC(=O)C[C@H](O)[C@H](CC(C)C)NC(=O)[C@H](Cc1c[nH]cn1)NC(=O)CN(C)C(=O)[C@@H](NC(=O)[C@H](C)NC(=O)[C@H](Cc1c[nH]c2ccccc12)NC(=O)[C@H](CCC(N)=O)NC(=O)[C@@H](Cc1ccccc1)NC(=O)[C@H](CCCNC(=N)N)NC(=O)COCCOCCNC(=O)CCC(C(=O)O)N1CCN(CC(=O)O)CCN(CC(=O)O)CCN(CC(=O)O)CC1)C(C)C)C(N)=O (stereo partly shown) [[^111In]In-AU-RM26-M3, metal not drawn] | ~ 3.5 %IA/g | 0.024 ± 0.002 | 0.06 ± 0.01 | 1.7 ± 0.3 | 1.3 ± 0.9 | 3.4 ± 0.2 | 0.17 ± 0.01 | 0.12 ± 0.01 | 0.03 ± 0.01 | 0.06 ± 0.01 | 0.08 ± 0.03 | 0.08 ± 0.01 | 104 | 39 ± 8 | 0.7 ± 0.2 | 15 ± 4.5 | 33 ± 22 | 75 ± 18 | 45 ± 15 | 35 ± 15 | Kd ([3]; read-out: KD1): 0.245 nM; Kd ([3]; read-out: KD2): 1.4 nM; tissue uptake at 4 h ([2]; Tumor uptake): 2.5 ± 0.6 %ID/g; tissue to tissue ratio at 4 h ([2]; Spleen): 31 ± 9
